Experiment [1] concerns the target T1, human ST2L extracellular domain with C-terminal His6 tag (human, UniProt Q01638 19-328).
T1 construct: also called huST2L-ECD; ST2L-ECD
T1 sequence: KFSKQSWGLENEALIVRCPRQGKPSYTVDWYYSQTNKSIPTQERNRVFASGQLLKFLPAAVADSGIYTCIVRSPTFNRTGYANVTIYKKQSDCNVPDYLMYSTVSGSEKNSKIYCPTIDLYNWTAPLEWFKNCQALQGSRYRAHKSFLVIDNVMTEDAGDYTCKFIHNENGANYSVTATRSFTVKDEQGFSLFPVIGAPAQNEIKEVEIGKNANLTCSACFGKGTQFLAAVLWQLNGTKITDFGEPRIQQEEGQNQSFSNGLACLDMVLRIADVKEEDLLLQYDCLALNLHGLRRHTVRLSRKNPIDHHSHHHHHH
Kind of experiment: RLB ELISA: biotinylated IL-33 on coated huST2L-ECD, antibody titrated. Put shortly:
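Plates coated 16 h at 4 °C with His6-tagged ST2L-ECD (human aa 19-328, 4 μg/ml; cyno aa 19-321, 2 μg/ml). Titrated mAbs applied 1 h at RT, then biotinylated IL-33 added 30 min (human 112-270 at 100 ng/ml final; cyno 112-269 at 200 ng/ml final). Bound ligand detected with streptavidin-HRP/TMB, OD450.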
In general terms: An ELISA detects its analyte on a solid surface through an enzyme-linked reagent.

Experiment [2] concerns the target T2, HH-ST2L (human ST2L Domains I and II), wild type (human, UniProt Q01638 19-205).
T2 construct: also called ST2L-D1D2
T2 sequence: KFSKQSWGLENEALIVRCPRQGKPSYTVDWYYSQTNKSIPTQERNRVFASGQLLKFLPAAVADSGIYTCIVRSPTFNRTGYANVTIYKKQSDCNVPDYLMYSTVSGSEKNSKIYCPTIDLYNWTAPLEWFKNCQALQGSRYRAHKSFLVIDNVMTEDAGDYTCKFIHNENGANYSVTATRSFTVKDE
Nature of the experiment: SPR, ProteOn XPR36, 25 C; mAb captured on anti-Fc surface, ST2L-D1D2 (HH-ST2L) protein injected; 1:1 model. Here is the method:
(§1) Binding studies were performed using the ProteOn XPR36 Protein Interaction Array system (Bio-Rad) (Bravman T, et al. Anal Biochem 358:281-288, 2006). […] Individual anti-ST2L mAb was then captured by flowing (1 μg/mL) antibody solution prepared in PBS containing 0.5% Nonidet P-40 and 0.5% Na-deoxycholate). The signal in the surfaces reached ˜250 resonance units (RU, 1 RU=1 pg protein/mm²) in the anti-Fc-coated surfaces, confirming that these antibodies specifically capture anti-ST2L mAbs. After 90° rotation of the fluid system, wild type of ST2L-D1D2 or variant proteins (0.5 mg/mL in PBS containing 0.5% Nonidet P-40 and 0.5% Na-deoxycholate) was injected in the parallel flow channels. All of these assays were performed at 25° C. The ST2L-D1D2-dependent signals on the surfaces were obtained by double referencing, subtracting the response observed on surfaces immobilizing the antibodies alone, and the signal observed injecting the vehicle alone (which allows correction for binding-independent responses). The resulting sensorgrams were fitted by the simplest 1:1 interaction model (ProteOn analysis software), to obtain the corresponding association and dissociation rate constants (kₐ and kd).
On the technique in general: Surface plasmon resonance follows binding to a sensor surface in real time, without labels.

The target of experiment [3] is T3, HH-ST2L variant 93NL94 (substitution 93TF94 to 93NL94) (human, UniProt Q01638 19-205).
T3 chain: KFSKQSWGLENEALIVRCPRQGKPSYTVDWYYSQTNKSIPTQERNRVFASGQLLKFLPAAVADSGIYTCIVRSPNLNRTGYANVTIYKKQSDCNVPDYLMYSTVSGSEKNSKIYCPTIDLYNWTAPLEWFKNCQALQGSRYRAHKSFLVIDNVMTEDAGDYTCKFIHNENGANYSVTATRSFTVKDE
Kind of experiment: ProteOn SPR, mAb captured by anti-Fc, ST2L-D1D2 variant injected. Here is the method: as §1
Residue numbering is according to full length human ST2L of SEQ ID NO: 1.

Experiment [4] addresses T4, human ST2L, full length, on cells (human, UniProt Q01638 19-556).
T4 sequence: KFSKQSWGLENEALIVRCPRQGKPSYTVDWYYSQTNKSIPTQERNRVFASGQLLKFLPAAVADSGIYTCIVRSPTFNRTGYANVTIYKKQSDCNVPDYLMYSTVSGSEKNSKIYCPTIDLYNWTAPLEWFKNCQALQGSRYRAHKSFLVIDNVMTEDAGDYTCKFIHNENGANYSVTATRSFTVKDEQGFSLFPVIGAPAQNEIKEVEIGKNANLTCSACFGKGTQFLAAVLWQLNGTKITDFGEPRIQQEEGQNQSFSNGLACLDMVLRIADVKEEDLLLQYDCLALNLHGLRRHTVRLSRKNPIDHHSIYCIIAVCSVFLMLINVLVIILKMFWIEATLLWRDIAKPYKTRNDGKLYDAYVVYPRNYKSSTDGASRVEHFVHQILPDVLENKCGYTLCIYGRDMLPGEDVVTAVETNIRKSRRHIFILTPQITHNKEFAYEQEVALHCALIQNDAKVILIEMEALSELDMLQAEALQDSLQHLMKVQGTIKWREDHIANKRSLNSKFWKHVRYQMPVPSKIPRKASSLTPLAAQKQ
Kind of experiment: cell-based or functional assay.

B1: STLM208 (antibody, V domains shown)
VH: EVQLLESGGGLVQPGGSLRLSCAASGFTFSIYDMIWVRQAPGKGLEWVSSIRGEGGGTYYADSVKGRFTISRDNSKNTLYLQMNSLRAEDTAVYYCARDPWSTEGSFFVLDYWGQGTLVTVSS
VL: EIVLTQSPATLSLSPGERATLSCRASQSVDDDLAWYQQKPGQAPRLLIYDASNRATGIPARFSGSGSGTDFTLTISSLEPEDFAVYYCQQYITAPLTFGQGTKVEIK
notes: frameworks VH3-23 / Vk-L6
Consider B1, for which the midpoint of inhibition in experiment [1], the IC50, lay at 0.47 µg/mL. In experiment [2], the koff (commonly the rate constant with which the complex falls apart) is 0.000122 s⁻¹ and the kon (usually the rate constant with which the complex forms) came to 1.14e+07 M⁻¹ s⁻¹. Also, in experiment [3], the dissociation constant Kd (in general, the constant that tells how readily two partners part at equilibrium) was roughly 0.0495 nM and the “fold reduction of binding affinity against wild type ST2L-D1D2” value is roughly 5 fold. Besides, the “RGA IC50” value in experiment [4] is 0.61 µg/mL.

The values are drawn from patent US20170066831A1 (Janssen / Centocor, published 2017).
